T1: biotinylated mouse recombinant IL-12Rβ2 (produced in-house) (mouse, UniProt P97378 24-637, random biotinylated)
T1 construct: Soluble recombinant protein used for panning, ELISA and BLI; also called mIL-12RB2; mIL12RB2
T1 sequence: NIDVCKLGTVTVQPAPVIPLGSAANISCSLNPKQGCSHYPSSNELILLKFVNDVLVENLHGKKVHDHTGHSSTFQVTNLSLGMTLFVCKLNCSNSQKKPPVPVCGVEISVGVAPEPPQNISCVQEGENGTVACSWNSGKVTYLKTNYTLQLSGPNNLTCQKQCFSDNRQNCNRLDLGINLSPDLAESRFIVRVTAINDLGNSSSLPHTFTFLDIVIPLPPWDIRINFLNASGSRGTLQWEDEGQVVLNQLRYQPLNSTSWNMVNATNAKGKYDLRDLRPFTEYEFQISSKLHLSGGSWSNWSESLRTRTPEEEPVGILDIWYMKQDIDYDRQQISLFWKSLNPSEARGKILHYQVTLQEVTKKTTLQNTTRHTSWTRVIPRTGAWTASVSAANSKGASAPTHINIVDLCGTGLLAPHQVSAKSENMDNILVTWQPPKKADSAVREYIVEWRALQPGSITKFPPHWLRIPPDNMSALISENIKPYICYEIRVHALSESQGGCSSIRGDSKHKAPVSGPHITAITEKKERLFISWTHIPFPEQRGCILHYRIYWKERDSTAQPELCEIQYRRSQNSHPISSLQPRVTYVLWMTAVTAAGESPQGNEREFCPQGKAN

T2: biotinylated human recombinant IL-12Rβ2 (produced in-house) (human, UniProt Q99665 24-622, random biotinylated)
T2 construct: Soluble recombinant protein used for panning, ELISA and BLI; also called hIL-12RB2; hIL12RB2
T2 sequence: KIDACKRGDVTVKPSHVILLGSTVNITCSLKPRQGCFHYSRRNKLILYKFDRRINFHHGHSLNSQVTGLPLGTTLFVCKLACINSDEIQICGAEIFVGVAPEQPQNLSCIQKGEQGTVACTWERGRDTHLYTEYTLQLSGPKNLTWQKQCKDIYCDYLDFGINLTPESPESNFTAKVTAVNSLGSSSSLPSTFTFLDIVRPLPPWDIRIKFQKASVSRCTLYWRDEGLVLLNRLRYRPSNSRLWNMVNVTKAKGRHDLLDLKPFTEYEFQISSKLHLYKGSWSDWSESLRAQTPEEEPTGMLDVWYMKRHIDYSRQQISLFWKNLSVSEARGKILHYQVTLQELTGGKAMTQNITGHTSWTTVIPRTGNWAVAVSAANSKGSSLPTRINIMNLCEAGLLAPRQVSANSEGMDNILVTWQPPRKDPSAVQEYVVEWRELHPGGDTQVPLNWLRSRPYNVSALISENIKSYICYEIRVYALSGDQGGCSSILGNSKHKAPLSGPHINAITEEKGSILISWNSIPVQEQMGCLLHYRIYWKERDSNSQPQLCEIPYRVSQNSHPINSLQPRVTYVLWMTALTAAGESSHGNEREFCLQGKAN

T3: mouse IL-12Rβ2 expressed on cells (mouse, UniProt P97378 24-874)
T3 construct: the cell lines are described by plasmid or cDNA number only; also called mIL-12RB2; HEK293T transiently transfected with mouse IL-12Rβ2
T3 sequence: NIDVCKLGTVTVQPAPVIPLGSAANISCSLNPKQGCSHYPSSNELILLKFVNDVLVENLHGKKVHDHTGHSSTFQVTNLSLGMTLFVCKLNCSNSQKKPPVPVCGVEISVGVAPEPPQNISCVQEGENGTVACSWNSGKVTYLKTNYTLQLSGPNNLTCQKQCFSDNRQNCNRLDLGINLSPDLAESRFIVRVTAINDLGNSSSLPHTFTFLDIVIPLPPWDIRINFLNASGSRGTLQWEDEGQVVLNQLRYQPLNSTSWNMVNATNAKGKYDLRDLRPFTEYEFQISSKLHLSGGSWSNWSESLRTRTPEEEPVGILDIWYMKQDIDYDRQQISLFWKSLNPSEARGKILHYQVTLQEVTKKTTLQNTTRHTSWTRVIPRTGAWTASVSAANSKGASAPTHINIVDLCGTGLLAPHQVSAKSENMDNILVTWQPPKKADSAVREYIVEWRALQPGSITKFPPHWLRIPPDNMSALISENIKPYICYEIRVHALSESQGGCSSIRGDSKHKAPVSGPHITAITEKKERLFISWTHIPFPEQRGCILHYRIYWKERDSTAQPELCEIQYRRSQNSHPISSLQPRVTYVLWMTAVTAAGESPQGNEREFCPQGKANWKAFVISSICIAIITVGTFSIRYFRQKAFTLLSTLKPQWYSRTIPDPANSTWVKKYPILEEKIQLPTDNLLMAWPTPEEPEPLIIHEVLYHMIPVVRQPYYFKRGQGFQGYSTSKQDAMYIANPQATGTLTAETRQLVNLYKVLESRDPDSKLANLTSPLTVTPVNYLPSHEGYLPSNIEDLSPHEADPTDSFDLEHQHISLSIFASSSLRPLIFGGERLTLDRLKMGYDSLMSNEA

T4: human IL-12Rβ2 expressed on cells (human, UniProt Q99665 24-862)
T4 construct: the cell lines are described by plasmid or cDNA number only; also called hIL-12RB2; HEK293T transiently transfected with human IL-12Rβ2
T4 sequence: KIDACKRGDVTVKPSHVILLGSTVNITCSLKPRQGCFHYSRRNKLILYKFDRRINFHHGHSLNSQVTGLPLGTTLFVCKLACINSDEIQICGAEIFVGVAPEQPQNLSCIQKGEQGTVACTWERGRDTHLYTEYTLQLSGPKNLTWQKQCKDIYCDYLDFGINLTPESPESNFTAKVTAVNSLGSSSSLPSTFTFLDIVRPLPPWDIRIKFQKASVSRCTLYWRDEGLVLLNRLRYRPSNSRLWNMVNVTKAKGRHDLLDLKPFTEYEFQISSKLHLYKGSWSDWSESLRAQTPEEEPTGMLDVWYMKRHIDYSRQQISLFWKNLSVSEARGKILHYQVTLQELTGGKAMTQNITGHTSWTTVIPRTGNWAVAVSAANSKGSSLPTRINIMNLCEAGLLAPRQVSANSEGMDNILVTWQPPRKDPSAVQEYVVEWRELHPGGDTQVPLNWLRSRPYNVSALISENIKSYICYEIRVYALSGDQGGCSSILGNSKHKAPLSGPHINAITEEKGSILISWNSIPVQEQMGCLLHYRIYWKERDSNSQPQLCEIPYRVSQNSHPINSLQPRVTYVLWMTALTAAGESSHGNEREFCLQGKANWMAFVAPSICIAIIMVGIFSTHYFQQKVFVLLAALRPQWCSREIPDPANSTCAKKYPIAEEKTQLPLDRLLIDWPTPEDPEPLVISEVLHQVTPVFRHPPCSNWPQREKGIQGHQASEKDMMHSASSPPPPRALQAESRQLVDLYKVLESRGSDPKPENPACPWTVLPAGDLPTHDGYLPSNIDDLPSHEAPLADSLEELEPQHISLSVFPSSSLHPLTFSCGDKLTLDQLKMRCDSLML

T5: biotinylated recombinant mouse IL-12Rβ2 (mouse, UniProt P97378 24-637, random biotinylated)
T5 construct: Recombinant protein produced in-house; also called mIL-12RB2; mouse IL-12RB2
T5 sequence: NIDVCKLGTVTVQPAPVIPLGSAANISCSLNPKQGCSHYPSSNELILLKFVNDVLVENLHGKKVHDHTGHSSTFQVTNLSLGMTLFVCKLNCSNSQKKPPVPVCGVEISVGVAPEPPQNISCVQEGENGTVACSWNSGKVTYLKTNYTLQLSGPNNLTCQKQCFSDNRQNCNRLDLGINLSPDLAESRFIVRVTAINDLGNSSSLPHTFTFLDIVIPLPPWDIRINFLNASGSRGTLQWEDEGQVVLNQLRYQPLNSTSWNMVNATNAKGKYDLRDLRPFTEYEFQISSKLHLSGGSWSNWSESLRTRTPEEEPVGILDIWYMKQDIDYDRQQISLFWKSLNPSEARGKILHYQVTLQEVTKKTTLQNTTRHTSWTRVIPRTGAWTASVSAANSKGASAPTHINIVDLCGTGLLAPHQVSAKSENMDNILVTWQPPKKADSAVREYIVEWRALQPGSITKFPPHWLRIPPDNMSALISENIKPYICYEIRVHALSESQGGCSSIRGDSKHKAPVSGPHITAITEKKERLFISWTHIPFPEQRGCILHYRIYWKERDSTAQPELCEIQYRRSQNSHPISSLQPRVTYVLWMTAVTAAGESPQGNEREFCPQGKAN

T6: biotinylated recombinant human IL-12Rβ2 (human, UniProt Q99665 24-622, random biotinylated)
T6 construct: Recombinant protein produced in-house; also called hIL-12RB2; human IL-12RB2
T6 sequence: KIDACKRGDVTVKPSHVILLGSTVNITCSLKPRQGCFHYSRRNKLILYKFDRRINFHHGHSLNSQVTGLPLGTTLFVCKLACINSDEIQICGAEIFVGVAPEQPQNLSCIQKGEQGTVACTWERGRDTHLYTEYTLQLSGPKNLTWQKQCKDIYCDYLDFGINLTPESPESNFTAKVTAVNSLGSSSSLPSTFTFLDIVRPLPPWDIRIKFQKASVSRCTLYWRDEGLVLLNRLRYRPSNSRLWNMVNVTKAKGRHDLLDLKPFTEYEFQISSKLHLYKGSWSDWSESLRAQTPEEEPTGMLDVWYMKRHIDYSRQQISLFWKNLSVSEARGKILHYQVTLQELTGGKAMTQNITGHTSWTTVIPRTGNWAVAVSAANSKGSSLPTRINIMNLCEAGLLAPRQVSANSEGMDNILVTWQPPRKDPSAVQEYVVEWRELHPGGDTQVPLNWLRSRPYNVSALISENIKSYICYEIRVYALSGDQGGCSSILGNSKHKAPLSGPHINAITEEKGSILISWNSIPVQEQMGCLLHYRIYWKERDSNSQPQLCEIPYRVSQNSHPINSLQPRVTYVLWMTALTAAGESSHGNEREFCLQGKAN

B1: anti-IL-12Rβ2 VHH clone 3CAHM11 (clone ID 21050) (VHH)
VHH: QVQLQESGGGLVQAGGSLRLSCAASGRTFNNYAMAWFRQAPGKEREFIAAITRSDTTLYIDSVKGRFTISRDNAKNTVALQMNSLKPEDTAVYYCAAGMPYSYSDYPRDSKYDYWGRGTQVTVSS
notes: Tested as periplasmic extract; not shown: C-terminal HA tag
B2: anti-IL-12Rβ2 VHH clone 3CAHM11 (clone ID 21050) (VHH, not shown: small tags and cut ends)
VHH: QVQLQESGGGLVQAGGSLRLSCAASGRTFNNYAMAWFRQAPGKEREFIAAITRSDTTLYIDSVKGRFTISRDNAKNTVALQMNSLKPEDTAVYYCAAGMPYSYSDYPRDSKYDYWGRGTQVTVSS
notes: periplasmic extract
B3: anti-IL-12Rβ2 VHH clone 3CRHM73 (clone ID 21060) (VHH)
VHH: QVQLQESGGGLVQAGGSLSLSCAASGSAFRLNFMGWYRQAPGKQRELVAAINSGGTEIYHDSVKGRFTISRDNADSTVWLQMNSLKPDDTAVYYCAADRGISWSKLAGGMDYWGKGTQVTVSS
notes: as for B1
B4: anti-IL-12Rβ2 VHH clone 3CRH83 (clone ID 20390) (VHH, not shown: small tags and cut ends)
VHH: QVQLQESGGGLVQAGGSLKLSCAASGNTFSINAMAWYRQAPGQELELVAAISDVGNTIYADSMKGRFTISRGNADNTVYLQMNSLKPEDTATYYCNAGTFYTSPGDSYYRGYDFWGQGTQVTVSS
notes: periplasmic extract
B5: anti-IL-12Rβ2 VHH clone 3CRHM14 (clone ID 21053) (VHH)
VHH: QVQLQESGGGLVQAGGSLRLSCAASGRTFSNYAMAWFRQAPGTEREFVAGLSGSGGDTEFYDDSVKGRFAISRDSAKNTVWLQMNSLKPEDTAVYYCAAATHVVVHYGLVRRRGTYDYWGQGTQVTVSS
notes: as for B1
B6: anti-IL-12Rβ2 VHH clone 3CRHM99 (clone ID 21062) (VHH)
VHH: QVQLQESGGGLVQPGGSLRLSCAASGISSSRLHVGWFRQSPGKEREFVAAISLSGGTQAYTDSVKGRFTISGDNVKNTAYLQMNSLRPEDTAVYYCAARERFIWTWSDLTYDYWGQGTQVTVSS
notes: as for B1

How the values were obtained:
[1] = biological target: T1, biotinylated mouse recombinant IL-12Rβ2 …; assay: BLI (Octet Red), periplasmic extract on biotinylated mouse IL-12Rβ2 on streptavidin tips, 1:1 model
[2] = biological target: T1, biotinylated mouse recombinant IL-12Rβ2 …; assay: BLI (Octet Red), periplasmic extract on biotinylated mouse IL-12Rβ2 on streptavidin tips
[3] = biological target: T2, biotinylated human recombinant IL-12Rβ2 …; assay: BLI (Octet Red), periplasmic extract on biotinylated human IL-12Rβ2 on streptavidin tips, 1:1 model
[4] = biological target: T2, biotinylated human recombinant IL-12Rβ2 …; assay: BLI (Octet Red), periplasmic extract on biotinylated human IL-12Rβ2 on streptavidin tips
[5] = biological target: T2, biotinylated human recombinant IL-12Rβ2 …; assay: ELISA, periplasmic extract on biotinylated human IL-12Rβ2; signal over streptavidin control well
[6] = biological target: T3, mouse IL-12Rβ2 expressed on cells; assay: flow cytometry, periplasmic extract VHH-HA on HEK293T cells transiently expressing mouse IL-12Rβ2
[7] = biological target: T1, biotinylated mouse recombinant IL-12Rβ2 …; assay: ELISA, periplasmic extract on biotinylated mouse IL-12Rβ2; signal over streptavidin control well
[8] = biological target: T4, human IL-12Rβ2 expressed on cells; assay: flow cytometry, periplasmic extract VHH-HA on HEK293T cells transiently expressing human IL-12Rβ2
[9] = biological target: T5, biotinylated recombinant mouse IL-12Rβ2; assay: ELISA, P.E., biotinylated antigen
[10] = biological target: T6, biotinylated recombinant human IL-12Rβ2; assay: ELISA, P.E., biotinylated antigen
[11] = biological target: T5, biotinylated recombinant mouse IL-12Rβ2; assay: BLI, P.E., off-rate ranking
[12] = biological target: T6, biotinylated recombinant human IL-12Rβ2; assay: BLI, P.E., off-rate ranking

Binder	koff [1]	Response [2]	koff [3]	Response [4]	hIL12RB2/control (ELISA) [5]	% cells bound [6]	dMFI [6]	mIL12RB2/control (ELISA) [7]	% cells bound [8]	dMFI [8]	ELISA mIL-12RB2/control [9]	ELISA hIL-12RB2/control [10]	Response [11]	koff [11]	Response [12]	koff [12]
B1	0.00462 s⁻¹	1.03	0.00519 s⁻¹	1.4	3.04 ratio	7.51%	194	38.8 ratio	37.6%	684						
B2											38.8	3.04	1.03	0.00462 s⁻¹	1.4	0.00519 s⁻¹
B3	0.00605 s⁻¹	0.944	0.00605 s⁻¹	1.45	6.9 ratio	10.4%	257	26.3 ratio	19.5%	297						
B4											14	8.46	1.35	0.00722 s⁻¹	0.693	0.00528 s⁻¹
B5	0.00483 s⁻¹	0.957	0.00532 s⁻¹	1.19	3.11 ratio	18.6%	312	25.1 ratio	35.8%	589						
B6	0.00671 s⁻¹	0.812	0.00634 s⁻¹	1.45	4.24 ratio	10.7%	251	5.24 ratio	24.4%	458						
